Article PMC3936710
Several values for one entry are separate records, joined by “and”; a condition that tells them apart may be missing. Equal entries are not always repeated.

What was measured:
TRF2ΔB [1] = target: T1, TRF2ΔB (UniProt Q15554); test: AFM; conditions: linear T270; Tightrope assays at 75-225 mM ionic strength (buffer, pH and temperature not in the material); AFM samples diluted 10-fold in 25 mM NaOAc, 25 mM HEPES-KOH pH 7.
T1 sequence: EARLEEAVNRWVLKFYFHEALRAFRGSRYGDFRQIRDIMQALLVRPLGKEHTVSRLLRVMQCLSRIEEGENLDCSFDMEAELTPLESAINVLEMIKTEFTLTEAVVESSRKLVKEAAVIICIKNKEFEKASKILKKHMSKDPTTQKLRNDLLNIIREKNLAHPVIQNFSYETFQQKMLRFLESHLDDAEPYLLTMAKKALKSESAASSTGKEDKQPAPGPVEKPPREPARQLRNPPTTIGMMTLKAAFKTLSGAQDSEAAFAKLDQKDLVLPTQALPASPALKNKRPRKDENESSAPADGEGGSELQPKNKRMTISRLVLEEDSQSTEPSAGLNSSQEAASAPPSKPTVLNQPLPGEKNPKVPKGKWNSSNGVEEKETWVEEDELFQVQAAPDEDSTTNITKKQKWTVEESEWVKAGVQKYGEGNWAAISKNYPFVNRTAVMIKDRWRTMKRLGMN

TRF2 = target: T2, TRF2 (UniProt Q15554); test: single-molecule DNA tightrope; conditions: Tightrope assays at 75-225 mM ionic strength (buffer, pH and temperature not in the material); AFM samples diluted 10-fold in 25 mM NaOAc, 25 mM HEPES-KOH pH 7.
T2 sequence: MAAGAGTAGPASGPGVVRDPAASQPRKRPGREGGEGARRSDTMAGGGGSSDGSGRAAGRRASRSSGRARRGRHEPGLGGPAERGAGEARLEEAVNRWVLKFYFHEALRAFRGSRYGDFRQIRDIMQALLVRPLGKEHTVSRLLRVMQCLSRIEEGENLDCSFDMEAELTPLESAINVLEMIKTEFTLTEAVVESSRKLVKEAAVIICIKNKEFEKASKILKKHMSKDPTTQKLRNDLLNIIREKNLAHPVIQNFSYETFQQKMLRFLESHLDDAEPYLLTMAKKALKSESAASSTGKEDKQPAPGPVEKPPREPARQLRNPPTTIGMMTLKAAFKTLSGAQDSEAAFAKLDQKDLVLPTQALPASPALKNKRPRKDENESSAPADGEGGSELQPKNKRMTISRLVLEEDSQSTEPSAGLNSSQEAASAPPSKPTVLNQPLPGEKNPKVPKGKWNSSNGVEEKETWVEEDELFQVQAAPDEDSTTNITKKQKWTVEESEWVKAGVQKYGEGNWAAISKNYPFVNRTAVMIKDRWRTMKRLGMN

TRF1 = target: T3, TRF1 (UniProt P54274); test: single-molecule DNA tightrope; conditions: Tightrope assays at 75-225 mM ionic strength (buffer, pH and temperature not in the material); AFM samples diluted 10-fold in 25 mM NaOAc, 25 mM HEPES-KOH pH 7.
T3 sequence: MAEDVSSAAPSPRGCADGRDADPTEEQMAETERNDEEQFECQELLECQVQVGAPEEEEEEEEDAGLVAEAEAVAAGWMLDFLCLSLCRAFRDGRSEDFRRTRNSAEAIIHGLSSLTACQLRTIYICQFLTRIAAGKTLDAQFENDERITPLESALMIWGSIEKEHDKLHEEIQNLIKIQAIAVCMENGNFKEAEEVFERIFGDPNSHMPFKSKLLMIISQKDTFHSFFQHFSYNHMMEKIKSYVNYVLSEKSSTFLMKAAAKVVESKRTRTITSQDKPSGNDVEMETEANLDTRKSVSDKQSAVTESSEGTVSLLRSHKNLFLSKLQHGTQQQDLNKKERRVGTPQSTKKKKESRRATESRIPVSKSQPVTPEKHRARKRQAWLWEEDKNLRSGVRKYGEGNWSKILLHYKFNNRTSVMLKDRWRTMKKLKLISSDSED

TRF2ΔB [2] = target: T1, TRF2ΔB; test: single-molecule DNA tightrope; conditions: 125 mM ionic strength; Tightrope assays at 75-225 mM ionic strength (buffer, pH and temperature not in the material); AFM samples diluted 10-fold in 25 mM NaOAc, 25 mM HEPES-KOH pH 7.
TRF2 Myb domain = test: cited; conditions: Tightrope assays at 75-225 mM ionic strength (buffer, pH and temperature not in the material); AFM samples diluted 10-fold in 25 mM NaOAc, 25 mM HEPES-KOH pH 7.; cited from earlier work
TRF1 Myb domain = test: cited; conditions: Tightrope assays at 75-225 mM ionic strength (buffer, pH and temperature not in the material); AFM samples diluted 10-fold in 25 mM NaOAc, 25 mM HEPES-KOH pH 7.; cited from earlier work

## T270 telomeric region (TTAGGG)270
TRF2ΔB [1]
  binding signal (% of DNA-bound QDs at telomeric region): 66
TRF2
  binding signal (s (attached lifetime)): 14.8 and 10.3
TRF1
  binding signal (s (attached lifetime)): 17.3 and 9.2

## TTAGGGTTAGGGTTAGGGTTAGGGTTAGGGTTAGGGTTAGGGTTAGGGTTAGGGTTAGGG (double strand) [Tel10 telomeric region (TTAGGG)10]
TRF2
  binding signal (s (attached lifetime)): 6.7

## lambda DNA
TRF2ΔB [2]
  binding signal (QDs per field of view (TRF2 13.3)): 1.4

## telomeric DNA of cited Myb domain study
TRF2 Myb domain
  Kd: 750 nM
TRF1 Myb domain
  Kd: 200 nM
